Experimental data as given in patent US9493557B2, “Chemokine binding polypeptides for treating autoimmunity and inflammation” (Biokine Therapeutics Ltd., priority 2009, dated 2016).

Columns and labels:
Type in all cases: cell-based
IP-10 = target: T1, IP-10 (Homo sapiens, UniProt P02778); experiment: In vitro T cell adhesion to VCAM-1 induced by IP-10 under shear flow; settings: for Inhibition of chemokine-dependent T cell adhesion: IP-10: 10 μg/ml peptide, T cells on VCAM-1 under shear flow
T1 construct: purchased PeproTech
T1 sequence (P02778 22-98): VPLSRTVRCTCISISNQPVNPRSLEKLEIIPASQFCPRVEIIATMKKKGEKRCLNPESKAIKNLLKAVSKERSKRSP
Method: (§1) 50 ml of blood was added to 10 ml of a solution of Dextran T-500 (6% w/v) in PBS (phosphate buffer saline), and 7 ml of citrate buffer (25 grams citrate, 8 grams citric acid in 500 ml PBS). The solution was incubated for 30 minutes at 25° C. 10 ml of Ficoll 1077 was added to the bottom of the tube. The tube was then centrifuged at 2,000 rotations per minute for 30 minutes at 18° C. (with the brake mode of the centrifuge off). The interphase was collected and washed twice with 8 ml PBS with 5% FCS (fetal calf serum), followed by centrifugation at 1,400 rotations per minute for 5 minutes at 18° C. The cells were re-suspended in PBS with 5% FCS at a concentration less then 10^8 per ml. 2 ml of the cell solution were applied on a poly(methyl methacrylate) nylon wool column which was pre-soaked in PBS-5% FCS, and then incubated for 45 minutes at 25° C. Each column was washed with 8 ml PBS-5% FCS and the cells (T-cells and erythrocytes) were eluted by 50 ml of 5 mM EDTA (ethylenediaminetetraacetic acid) in PBS. A red pellet was obtained by centrifugation at 1,400 rotations per minute for 5 minutes at 4° C. (with the brake on).
(§2) In order to perform lysis of the erythrocytes, the red pellet was re-suspended in 5 ml of lysis-buffer (155 mM NH4Cl, 10 mM KHCO3, 0.1 mM EDTA, X0.1 PBS) for 4 minutes, followed by immediate addition of 50 ml of PBS with EDTA. Following centrifugation at 1,400 rotations per minute for 5 minutes at 4° C., the pellet was washed again with 50 ml PBS-EDTA and re-centrifuged under the same conditions. […] The cells were ready for use in experiments after overnight incubation at 37° C. […]
(§3) The plates were then assembled as the lower wall of a parallel wall flow chamber and mounted on the stage of an inverted microscope. […] The number of adherent cells resisting detachment by the elevated shear forces was determined after each interval by analysis of videotaped cell images, and was expressed as the percent of originally settled cells. […]

I-TAC = target: T2, I-TAC (Homo sapiens, UniProt O14625); experiment: In vitro T cell adhesion to VCAM-1 induced by I-TAC under shear flow; settings: for Inhibition of chemokine-dependent T cell adhesion: I-TAC: 10 μg/ml peptide, T cells on VCAM-1 under shear flow; for T cell adhesion induced by I-TAC (result in words): T cells on VCAM-1
T2 construct: purchased PeproTech
T2 sequence (O14625 22-94): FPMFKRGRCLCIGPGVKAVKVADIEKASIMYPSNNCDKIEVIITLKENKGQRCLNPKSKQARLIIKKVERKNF
Method: as §1
(§4) In order to perform lysis of the erythrocytes, the red pellet was re-suspended in 5 ml of lysis-buffer (155 mM NH4Cl, 10 mM KHCO3, 0.1 mM EDTA, X0.1 PBS) for 4 minutes, followed by immediate addition of 50 ml of PBS with EDTA. Following centrifugation at 1,400 rotations per minute for 5 minutes at 4° C., the pellet was washed again with 50 ml PBS-EDTA and re-centrifuged under the same conditions. A white pellet was obtained and re-suspended in RPMI medium with 10% FCS, L-glutamine, sodium pyruvate and antibiotics at a concentration of 3×10^6 cells per ml. The cells were incubated for 2 hours at 37° C., followed by collection of the non-adherent cells. The cells were ready for use in experiments after overnight incubation at 37° C.
(§5) 10 μg/ml of human VCAM-1 and 2 μg/ml of a chemokine (intact MIG, IP-10, I-TAC, MCP-1, RANTES, SDF-1 (stromal cell-derived factor-1), BCA-1 (B lymphocyte chemoattractant-1), IL-8 (interleukin-8) or eotaxin, or heat-inactivated SDF-1 as a control) were dissolved in PBS buffered with 20 mM bicarbonate (pH 8.5), and incubated in polystyrene plates overnight at 4° C. Alternatively, 10 μg/ml of the chemokine was used, and the plates were incubated for 30 minutes at room temperature. […]
as §3

MIG = target: T3, MIG (Homo sapiens, UniProt Q07325); experiment: In vitro T cell adhesion to VCAM-1 induced by MIG under shear flow; settings: for Inhibition of chemokine-dependent T cell adhesion: MIG: 10 μg/ml peptide, T cells on VCAM-1 under shear flow
T3 construct: purchased PeproTech
T3 sequence (Q07325 23-125): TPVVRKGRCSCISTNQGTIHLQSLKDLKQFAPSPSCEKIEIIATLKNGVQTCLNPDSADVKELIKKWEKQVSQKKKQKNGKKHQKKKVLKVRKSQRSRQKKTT
Method: as §1, §2, §3

MCP-1 = target: T4, MCP-1 (Homo sapiens, UniProt P13500); experiment: In vitro T cell adhesion to VCAM-1 induced by MCP-1 under shear flow; settings: for Inhibition of chemokine-dependent T cell adhesion: MCP-1: 10 μg/ml peptide, T cells on VCAM-1 under shear flow; for T cell adhesion induced by MCP-1 (result in words): T cells on VCAM-1
T4 construct: purchased PeproTech
T4 sequence (P13500 24-99): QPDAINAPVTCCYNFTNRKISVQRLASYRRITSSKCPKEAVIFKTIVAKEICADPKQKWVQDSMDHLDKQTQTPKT
Method: as §1, §4, §5, §3

RANTES = target: T5, RANTES (Homo sapiens, UniProt P13501); experiment: In vitro T cell adhesion to VCAM-1 induced by RANTES under shear flow; settings: for Inhibition of chemokine-dependent T cell adhesion: RANTES: 10 μg/ml peptide, T cells on VCAM-1 under shear flow; for T cell adhesion induced by RANTES (result in words): T cells on VCAM-1
T5 construct: purchased PeproTech
T5 sequence (P13501 24-91): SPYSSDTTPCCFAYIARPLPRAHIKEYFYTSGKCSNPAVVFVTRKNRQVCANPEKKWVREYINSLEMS
Method: as §1, §4, §5, §3

Eotaxin = target: T6, Eotaxin (Homo sapiens, UniProt P51671); experiment: In vitro T cell adhesion to VCAM-1 induced by eotaxin under shear flow; settings: for Inhibition of chemokine-dependent T cell adhesion: Eotaxin: 10 μg/ml peptide, T cells on VCAM-1 under shear flow
T6 construct: purchased PeproTech
Method: as §1, §2, §3

SDF-1 = target: T7, SDF-1 (Homo sapiens, UniProt P48061); experiment: In vitro T cell adhesion to VCAM-1 induced by SDF-1 under shear flow; settings: 10 μg/ml peptide; T cells on VCAM-1 under shear flow
T7 construct: purchased PeproTech
T7 sequence (P48061 22-89 limits assumed): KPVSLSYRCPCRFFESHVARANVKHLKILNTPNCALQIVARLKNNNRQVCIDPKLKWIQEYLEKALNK
Method: (§6) 50 ml of blood was added to 10 ml of a solution of Dextran T-500 (6% w/v) in PBS (phosphate buffer saline), and 7 ml of citrate buffer (25 grams citrate, 8 grams citric acid in 500 ml PBS). The solution was incubated for 30 minutes at 25° C. 10 ml of Ficoll 1077 was added to the bottom of the tube. The tube was then centrifuged at 2,000 rotations per minute for 30 minutes at 18° C. (with the brake mode of the centrifuge off). The interphase was collected and washed twice with 8 ml PBS with 5% FCS (fetal calf serum), followed by centrifugation at 1,400 rotations per minute for 5 minutes at 18° C. The cells were re-suspended in PBS with 5% FCS at a concentration less then 10^8 per ml. […]
(§7) In order to perform lysis of the erythrocytes, the red pellet was re-suspended in 5 ml of lysis-buffer (155 mM NH4Cl, 10 mM KHCO3, 0.1 mM EDTA, X0.1 PBS) for 4 minutes, followed by immediate addition of 50 ml of PBS with EDTA. […] The cells were ready for use in experiments after overnight incubation at 37° C. […]
as §3

IL-8 = target: T8, IL-8 (Homo sapiens, UniProt P10145); experiment: In vitro T cell adhesion to VCAM-1 induced by IL-8 under shear flow; settings: 10 μg/ml peptide; T cells on VCAM-1 under shear flow
T8 construct: purchased PeproTech
T8 sequence (P10145 21-99): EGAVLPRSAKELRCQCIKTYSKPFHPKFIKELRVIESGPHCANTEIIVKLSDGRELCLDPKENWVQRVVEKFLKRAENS
Method: as §6, §7, §3

BCA-1 = target: T9, BCA-1 (Homo sapiens, UniProt O43927); experiment: In vitro T cell adhesion to VCAM-1 induced by BCA-1 under shear flow; settings: 10 μg/ml peptide; T cells on VCAM-1 under shear flow
T9 sequence (O43927 23-109): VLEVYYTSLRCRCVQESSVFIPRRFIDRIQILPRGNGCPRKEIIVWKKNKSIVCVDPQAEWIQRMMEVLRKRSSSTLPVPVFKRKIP
Method: as §6, §7, §3

Inhibition of chemokine-dependent T cell adhesion: IP-10 (IP-10)	Inhibition of chemokine-dependent T cell adhesion: I-TAC (I-TAC)	T cell adhesion induced by I-TAC (result in words) (I-TAC)	Inhibition of chemokine-dependent T cell adhesion: MIG (MIG)	T cell adhesion induced by MIG (result in words) (MIG; T cells on VCAM-1)	Inhibition of chemokine-dependent T cell adhesion: MCP-1 (MCP-1)	T cell adhesion induced by MCP-1 (result in words) (MCP-1)	Inhibition of chemokine-dependent T cell adhesion: RANTES (RANTES)	T cell adhesion induced by RANTES (result in words) (RANTES)	Inhibition of chemokine-dependent T cell adhesion: Eotaxin (Eotaxin)	Inhibition of chemokine-dependent T cell adhesion: SDF-1 (SDF-1)	Inhibition of chemokine-dependent T cell adhesion: IL-8 (IL-8)	T cell adhesion induced by IP-10 (result in words) (IP-10; T cells on VCAM-1)	T cell adhesion induced by eotaxin (result in words) (Eotaxin; T cells on VCAM-1)	Inhibition of chemokine-dependent T cell adhesion: BCA-1 (BCA-1)	Sequence
− (− = no inhibition)	++ (++ = 100% inhibition)	inhibited	++ (++ = 100% inhibition)	inhibited	++ (++ = 100% inhibition)	inhibited	++ (++ = 100% inhibition)	inhibited	− (− = no inhibition)	− (− = no inhibition)	− (− = no inhibition)				LDYPIPQTVLHH [BKT-P46, reference compound]
++ (++ = 100% inhibition)	++ (++ = 100% inhibition)	inhibited	− (− = no inhibition)		++ (++ = 100% inhibition)	inhibited	++ (++ = 100% inhibition)	inhibited	++ (++ = 100% inhibition)	− (− = no inhibition)		inhibited	inhibited	− (− = no inhibition)	SIPSHSIHSAKA [BKT-P2, reference compound]
